Measurements published in the RNAGym collection of RNA variant scans (doi:10.1073/pnas.2313332121).
Variants at the floor of the assay were thinned out.

B1: TPR 5TU (parent)
chain: GGAUCUUCUCGAUCUAACAAAAAAGACAAAUCUGCCACAAAGCUUGAGAGCAUCUUCGGAUGCAGAGGCGGCAGCCUUCGGUGGCGCGAUAGCGCCAACGUUCUCAACUAUGACACGCAAAACGCGUGCUCCGUUGAAUGGAGUUUAUCAUG

Variants of: B1
Test: polymerase ribozyme fitness, log enrichment relative to wild type (log ratio); higher = more active; in vitro selection for triplet polymerase activity
Outline: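 Mutant libraries of each subunit of a heterodimeric triplet polymerase ribozyme were built by PCR and transcribed. Each library went through one round of in vitro selection in triplicate: annealing with biotinylated primer, partner subunit and triplets, frozen incubation at −7 °C, gel excision of extended constructs, streptavidin-bead capture and RT-PCR. Input and output libraries were Illumina-sequenced; only genotypes with ≥10 input reads and ≥1 read per output were kept. Fitness is log2(genotype enrichment/wild-type enrichment), using inverse-variance-weighted replicate averages.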

Variant | polymerase ribozyme fitness (log ratio)
A17U A24U G83C | 0.0208
C14A A20U C85A U109G | ≤ -4.2
A12U A89U G94U C108G C118U A120C A122C A137C | ≤ -4.2
G68U A91G | ≤ -4.2
C51G A115C A122U | -3.82
U44A G84A C85G C95G C99U | -3.94
G94C U135A G141A | -2.22
U33A C43A C76U G92A G117U | -3.86
U7G A22U C43U C93A A142G | ≤ -4.2
A19U G70A U82A U127G | ≤ -4.2
G126A A142C | -3.28
C57U G124U G128U | -3.76
C35U G59C | 0.0057
A17U G80C C93A U101G | ≤ -4.2
C27U A49C G88A U111G | ≤ -4.2
C35A G50C G86U C118A | ≤ -4.2
C18G A19G A20U C57U G68C G141A | ≤ -4.2
U7A C36U C95G | ≤ -4.2
A21C U90A G94C | ≤ -4.2
A19U A52G G94C | -1.72
A12C U90G | ≤ -4.2
C116U U151C | -4.04
C51U C93G A120C G143C | -4.17
A28U C79G | ≤ -4.2

Variant | polymerase ribozyme fitness (log ratio)
U56G A97C | -1.65
G48A A137G C149U | -3.82
G59A U61C | -0.735
A113C U148C | -3.73
G11C A17G C32A C72U A113U G117U A122U U148G | ≤ -4.2
A41C C96U A107U C131A G133A U146C | ≤ -4.2
A26G A29C G50A U90G | ≤ -4.2
G62A C75U | -0.822
U7G C96U | -2.17
U7G A26U U56G G59C G83A C96U A138C | ≤ -4.2
U15C A21U | 1.65
A47C C57G G58C | 0.275
G86U A106C | -1.79
C51U U53G C93G U127C | ≤ -4.2
A16U U61A C93U G140A G143U U148G | ≤ -4.2
C10G A12U A22G C35G G94A C95U C99A U111C | ≤ -4.2
A20G A22C G25C C57A G92A C99U C108A | ≤ -4.2
A21U C85U G124A G126A G136A | -3.04
A20G G46A U146A | -1.3
C5G G48C U77A C85A G100A C103G C125A | ≤ -4.2
U134C | 0.0692
C54G A97G | -0.818
A49C U146A | -3.98
C32G G50C C51U G88A A110G | -4.19

Variant | polymerase ribozyme fitness (log ratio)
C27G C35G A64U A73G C79A C85G A91U | ≤ -4.2
A40G A41U U53A C123A C125U U134G | -3.73
A12C G58A G84U A115U | -3.83
C93G C108G C116G G133C | -3.85
C8G C14U A26C U61A C69U G80A U145G | ≤ -4.2
C38U A49C A60C U82G G83A | ≤ -4.2
A16G C76U C79A G83U G152U | ≤ -4.2
C43U G83U A120G | ≤ -4.2
A3C U15A A19U C75U C87U | -1.71
A40G | -1.51
G128U | -2.53
U15G C27G C76U C87G | ≤ -4.2
U45A A52G C116G | -3.56
U61G C76A U78C G88C | ≤ -4.2
U61A C69U A98U | -2.9
A12G A40G U44A U45A C93G A120U G141U | ≤ -4.2
A21C G59A A113G | -1.92
U9C A40C U45A G65C C85A U111G A113U C118G | ≤ -4.2
A16U C35A G74A G80C G83U G86A A97U | ≤ -4.2
C36U A47G G68C G133C | ≤ -4.2
A19G A28G C38U A49C G58A G65A C76A C93G | ≤ -4.2
G80U C114U U144C | -3.95
A26U C43G C85G C132U | ≤ -4.2
G50A C93A A97G C99U U109G | ≤ -4.2

Variant | polymerase ribozyme fitness (log ratio)
A73U G84U G152A | -3.83
C63U A150U | 0.854
U56C C93U U101G C103U G136C | -4.09
C96U A115C | -2.68
A40U C87U C105U G136U | -2.13
A37C A41U C93U C118A | -2.93
U6C U44A U56A U61C A91G U130A C132U A150C U151G | ≤ -4.2
U7G A21U C54A A66C A91C G136A | ≤ -4.2
U109G A115U C125A | -4.05
C35A A107U C108U | -3.61
C76A G136A | 0.971
C54A U61A C93G C149G | ≤ -4.2
U31A C75G C76G C96A U145G | ≤ -4.2
A12G C87A | ≤ -4.2
C8G C10G C14G A41C G83U A119U G141C | ≤ -4.2
U61A A107C C114U G140U | ≤ -4.2
U82C G112U G152A | -3.59
G50U U56A A91G C116U | -2.81
G86U C93U | -2.59
A49G C51G U78C C96G | -4.14
C10G A97U U130G | ≤ -4.2
C32U C57U A121U C125U | -1.52
G59C C93U | -1.11
C57U C118G U145C | -0.881

Variant | polymerase ribozyme fitness (log ratio)
C10G G68C G83U A107C | ≤ -4.2
C105U A120G A122C | 0.479
U15G U55A | -0.257
U15G A16C A21U A26C C103U | -3.98
A52G C96G G112C | ≤ -4.2
G42A G48U G58U C75G G83A U104G | ≤ -4.2
G84U U104G A115C | -3.36
C8A C14G | -3.51
U144C | 0.0778
C85A A120C A121U U130C U151G | ≤ -4.2
G50A A52G C76U A98G C123G | -2.81
A16U C54A U101G A119U C149U | -4.08
A41U G62C G136U | -3.69
A30G G50C C76U C103G | ≤ -4.2
C27U A60U | -1.43
A21U A29U A66U C76A C93G | ≤ -4.2
C95U C116G U135A | -2.67
G84U C118U | -1.91
A17G C85G | -1.33
A21C A91G C96U | -3.34
C32G G58C G94U | -3.86
A20U A41G A49U A52C G86C C96G | ≤ -4.2
C5U U13A A17C C27G A28U A52C C85U A113C U127A U144G | ≤ -4.2
A29C C36G U78C C93G A97G | ≤ -4.2

Variant | polymerase ribozyme fitness (log ratio)
A49U C54U G88C U90A C114U A142C | ≤ -4.2
C14A A21C A22C | -0.829
C18U G65U A73G C85U G141C | ≤ -4.2
C8A C32G A47U C54G G92U | ≤ -4.2
A22C A24C U61G G88U | ≤ -4.2
A20U C54A U56A G84C G86C C96U G117C A122U U144A A150G | ≤ -4.2
A47C G50A U53G C69G U77A C85A C103G A113G G136C | ≤ -4.2
C35U U146C | 0.279
U44A U45A A49C C57U G70A G84U A91U C123G | ≤ -4.2
U4G U7C A16G C96G | -2.73
U144A | -0.043
C35A C57U C85U C118U G128A G152U | -3.96
U53A U148A | -3.17
A52G G92C | -1.46
U56A U90G | ≤ -4.2
C18U A26G G58A C87A A97U G133A | ≤ -4.2
A28U G50C C54U C95A A107U G143U | ≤ -4.2
C69U G86U C114U G141U | ≤ -4.2
G128A G133U | -4
A24C G50C U56A C93U G94C U148C | ≤ -4.2
C54A C105G U130C | -2.7
C8G C63U G68A G92A A107U A142G | ≤ -4.2
A73C C93G | ≤ -4.2
U6A G83C A89U G136U A137G | -3.78

Variant | polymerase ribozyme fitness (log ratio)
A3U C36A U55C C79A C99A U145G | ≤ -4.2
U33C C36U U56A G84U U90C A110C G143C | ≤ -4.2
A40U G42A C63U C114U A119C G141U G143A | ≤ -4.2
C54U C85G A91U | ≤ -4.2
U53G G59C U61A G88C G94U | ≤ -4.2
C57A U61G U78G G88A U148A | ≤ -4.2
A12G G84A | -0.68
G62C G143U | -3.58
A89U C95A A97U U111G G124A C149A U151C | ≤ -4.2
C27U U61G U82G A89U A91G G100A A113U G140U | ≤ -4.2
G50A C79A | ≤ -4.2
A19C A41G C131A A138U | ≤ -4.2
A37C G80A G86A | -2.42
A12U C93U A97U C103U C105U G133U | ≤ -4.2
U31G C54A G88A G126A G141A | ≤ -4.2
C10U C54U G71U C85A C96G G133C U145G G152A | ≤ -4.2
A39G C54U C85U | -1.83
A24U C96U C129G | -3.47
G50C G71U A97U | ≤ -4.2
G11C U33G C38U A47C A49C G92A A97G U111G C118U G133U | -4.17
C131G G133U | -3.77
G11A A26G U55A C87A G124C G143C U148C | ≤ -4.2
A41U U145A | -0.141
